T1: GnT-I (Homo sapiens, UniProt P26572)
T1 construct: Ig kappa chain secretory signal (N); made in house; host or cells: HEK293T (transient, secreted into serum-free medium)
T1 sequence (P26572 39-445 limits assumed): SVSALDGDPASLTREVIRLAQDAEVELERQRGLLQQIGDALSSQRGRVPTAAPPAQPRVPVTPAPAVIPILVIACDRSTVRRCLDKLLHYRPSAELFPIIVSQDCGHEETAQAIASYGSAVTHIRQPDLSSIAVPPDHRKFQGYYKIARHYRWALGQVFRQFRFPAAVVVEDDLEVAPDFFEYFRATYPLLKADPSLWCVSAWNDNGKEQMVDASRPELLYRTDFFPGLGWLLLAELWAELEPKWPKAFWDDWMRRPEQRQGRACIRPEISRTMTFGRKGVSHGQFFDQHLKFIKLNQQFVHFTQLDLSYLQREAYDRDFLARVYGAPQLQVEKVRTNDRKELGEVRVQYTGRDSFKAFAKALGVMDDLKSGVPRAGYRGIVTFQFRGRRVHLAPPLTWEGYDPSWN

B1: His-Xpress-sGnT-I: control: solubilized human GnT-I enzyme, 407 amino acids from 39:Ser (protein)
chain: SVSALDGDPASLTREVIRLAQDAEVELERQRGLLQQIGDALSSQRGRVPTAAPPAQPRVPVTPAPAVIPILVIACDRSTVRRCLDKLLHYRPSAELFPIIVSQDCGHEETAQAIASYGSAVTHIRQPDLSSIAVPPDHRKFQGYYKIARHYRWALGQVFRQFRFPAAVVVEDDLEVAPDFFEYFRATYPLLKADPSLWCVSAWNDNGKEQMVDASRPELLYRTDFFPGLGWLLLAELWAELEPKWPKAFWDDWMRRPEQRQGRACIRPEISRTMTFGRKGVSHGQFFDQHLKFIKLNQQFVHFTQLDLSYLQREAYDRDFLARVYGAPQLQVEKVRTNDRKELGEVRVQYTGRDSFKAFAKALGVMDDLKSGVPRAGYRGIVTFQFRGRRVHLAPPLTWEGYDPSWN
modifications: left off: small tags and cut ends
notes: control: solubilized human GnT-I enzyme, 407 amino acids from 39:Ser
B2: His-Xpress-sOMGnT(S): solubilized human OMGnT, 414 amino acids 247:Ser to 660:Thr of SEQ ID NO: 2, secreted from HEK293T; plasmid named in Table 3 (protein, listed as Homo sapiens)
chain: SSAEEAECHWADTELNRRRRRFCSKVEGYGSVCSCKDPTPIEFSPDPLPDNKVLNVPVAVIAGNRPNYLYRMLRSLLSAQGVSPQMITVFIDGYYEEPMDVVALFGLRGIQHTPISIKNARVSQHYKASLTATFNLFPEAKFAVVLEEDLDIAVDFFSFLSQSIHLLEEDDSLYCISAWNDQGYEHTAEDPALLYRVETMPGLGWVLRRSLYKEELEPKWPTPEKLWDWDMWMRMPEQRRGRECIIPDVSRSYHFGIVGLNMNGYFHEAYFKKHKFNTVPGVQLRNVDSLKKEAYEVEVHRLLSEAEVLDHSKNPCEDSFLPDTEGHTYVAFIRMEKDDDFTTWTQLAKCLHIWDLDVRGNHRGLWRLFRKKNHFLVVGVPASPYSVKKPPSVTPIFLEPPPKEEGAPGAPEQT
modifications: His-Xpress tag

Tests used:
OMGnT = OMGnT activity in serum-free medium of HEK293T cells expressing solubilized enzymes; type: biochemical, human; settings: serum-free medium of HEK293T transfectants
Description: The enzyme solution was added to 140 mM MES [2-(N-morpholino) ethanesulfonic acid] buffer (pH 7.0) containing 0.4 mM Man-peptide, 0.2 mM UDP-[^3H]GlcNAc (up to 228,000 dpm/nmol), 10 mM MnCl2, 5 mM AMP, 200 mM GlcNAc, 2%(w/v) Triton X-100, 10% glycerol, 2 μg/ml antipain, 2 μg/ml chymostatin, 3 μg/ml pepstatin A, 2 μg/ml leupeptin, 1 mM benzamidine-HCl, and 1 mM PMSF (phenylmethylsulfonyl fluoride) to prepare 50 μl of reaction solution. After the reaction at 37° C. for 3 hours, the reaction was terminated by 3 minutes of boiling. The reaction mixture was then filtered with a filter Ultrafree-MC (Millipore) having a pore size of 0.22 μm to remove solids, and analyzed by Wakopak 5C18-200 column (4.6×250 mm, Wako Pure Chemical Industries, Ltd.). The separation was carried out using concentration gradient with Solution A and Solution B at a flow rate of 1.0 ml/min. […] Peptide detection was carried out at 214 nm, and the radioactivity of each fraction was assayed using a liquid scintillation counter.
Each secretory expression plasmid was transiently expressed in a HEK293T cell derived from human embryonic kidney. Usually, HEK293T cells were cultured in D-MEM (Gibco, #11995-065) containing 10% Fetal Calf Serum (Hyclone), 10 mM MEM Non-Essential Amino Acids solution (Gibco), 2 mM Glutamine (Gibco), and 100 units/ml Penicillin/100 μg/ml Streptomycin (Gibco). In a 6-well plate, 2 μg of plasmid was transfected into 50 to 70% confluent cells by calcium phosphate method. After overnight cultivation, the medium exchange was performed and the cultivation was continued for 48 hours [Pear, W. S., Nolan, G. P., Scott, M. L. and Baltimore, D., Proc. Natl. Acad. Sci. USA, (1993), 90, 8392–8396]. Further, the medium was exchanged with a serum-free medium, and after 48-hour cultivation, the supernatant was collected.
According to the method described in Example 1, OMGnT activity in the serum-free medium was assayed.

GnT-I = target: T1, GnT-I; experiment: GnT-I activity assay of solubilized enzymes; type: biochemical; settings: method of Reference Example 2
Description: The activity of GnT-1 was assayed with a method by Yoshida et al. [Yoshida, S., Suzuki, M., Yamano, S., Takeuchi, M., Ikenaga, H., Kioka, N., Sakai, H., and Komano, T., Glycobiology, (1999), 9, 53–58] as described below. A 20 μl reaction solution was prepared by adding an enzyme source thereto so as to have a final concentration of 100 mM MES (pH 6.0), 20 mM MnCl2, 5 μM Manα1–6(Manα1–3)Manα1–6(Manα1–3)Manβ1–4GlcNAcβ1–4GlcNAc-PA(M5GN2-PA; Takara Shuzo, PA-Sugar Chain 017), 1 mM UDP-GlcNAc, 100 mM GlcNAc, 5 mM AMP, 1% Triton X-100, and 0.2% BSA. The reaction solution was incubated at 37° C. for 1 hour, and the reaction was terminated in boiling water. Thereafter, the reaction solution was analyzed by a reverse phase HPLC (Cosmosil 5C18-AR column) available from Nacalai Tesque.
When Manα1–6(Manα1–3)Manβ1–4GlcNAcβ1–4GlcNAc-PA (M3GN2-PA; Takara Shuzo, PA-Sugar Chain 016) was used as a sugar receptor, the same method was employed for analysis.

Row | Molecule | OMGnT activity (OMGnT) [pmol/hr/mg protein] | OMGnT activity (in words) (OMGnT) | GnT-I activity (GnT-I) [pmol/hr/ml medium] | GnT-I activity (in words) (GnT-I)
1 | B1 | 0.4 | almost no activity | 500 | –
2 | B2 | 20 | significantly high OMGnT activity | – | did not exhibit activity at all
